Here are results for five substances from doi:10.1101/846337.

This experiment addresses F-actin (filamentous actin, purified from chicken breast) (Gallus gallus (chicken)) (UniProt P68139). The experiment is described as follows: co-sedimentation.

“UTRN-ABD V87D (from UniProt P46939 1-261) (domain or fragment)”: the Kd (as a rule, the constant that tells how readily two partners part at equilibrium) is greater than 100 µM.

Take “UTRN-ABD H29A (from UniProt P46939 1-261) (domain or fragment)”: the Kd stood at 2.8 µM. “UTRN-ABD I22D (from UniProt P46939 1-261) (domain or fragment)” had an equilibrium dissociation constant (Kd) of 38 µM. In turn, “Human UTRN-ABD (utrophin actin binding domain, amino acids 1-261) (from UniProt P46939 1-261) (domain or fragment)” displayed a Kd of 1.8 µM.

Substance “UTRN-ABD N109A (from UniProt P46939 1-261) (domain or fragment)” registered a Kd of 55 µM.
